Assay results from article PMC6166933 (PLoS ONE, 2018).
“And” between values parts separate entries of the source, which are not always exact repeats. Equal values may be shown once.

Target: T1, Recombinant human RO60 (human, UniProt P10155 1-538)
T1 construct: Recombinant human RO60 (rRO60), Abcam ab73786; see the vendor's data sheet for ab73786; also called rRO60; source: bought: Abcam (ab73786)
Test: BLI; BLItz system; antibody against RO60 captured on a Protein-A biosensor, rRO60 bound to it, rDDX6 bound for 2 min and dissociation for 2 min; 25°C; 10 mM Tris-HCl (pH 8.0), 150 mM NaCl; 193 nM rDDX6 with 917 nM or 1833 nM rRO60
Settings: both partners purified

T1 sequence (P10155 whole entry): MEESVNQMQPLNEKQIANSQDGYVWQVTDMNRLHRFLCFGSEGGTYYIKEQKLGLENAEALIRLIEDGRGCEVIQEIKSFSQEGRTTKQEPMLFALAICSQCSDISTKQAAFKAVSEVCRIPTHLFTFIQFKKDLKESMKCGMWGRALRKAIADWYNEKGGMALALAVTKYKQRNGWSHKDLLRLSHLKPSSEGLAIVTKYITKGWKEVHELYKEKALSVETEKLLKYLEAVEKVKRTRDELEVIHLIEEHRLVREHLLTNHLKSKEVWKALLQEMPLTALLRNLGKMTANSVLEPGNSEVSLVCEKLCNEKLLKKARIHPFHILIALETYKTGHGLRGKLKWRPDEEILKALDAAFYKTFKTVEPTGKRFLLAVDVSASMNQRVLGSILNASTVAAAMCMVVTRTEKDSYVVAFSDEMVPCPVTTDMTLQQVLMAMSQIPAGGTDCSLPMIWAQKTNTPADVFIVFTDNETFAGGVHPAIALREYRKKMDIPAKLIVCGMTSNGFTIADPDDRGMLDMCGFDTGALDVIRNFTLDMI

Kd: 620 nM and 950 nM
B1: Recombinant GST-tagged human DDX6 (natural protein, UniProt P26196 1-483, looked up)
chain: MSTARTENPVIMGLSSQNGQLRGPVKPTGGPGGGGTQTQQQMNQLKNTNTINNGTQQQAQSMTTTIKPGDDWKKTLKLPPKDLRIKTSDVTSTKGNEFEDYCLKRELLMGIFEMGWEKPSPIQEESIPIALSGRDILARAKNGTGKSGAYLIPLLERLDLKKDNIQAMVIVPTRELALQVSQICIQVSKHMGGAKVMATTGGTNLRDDIMRLDDTVHVVIATPGRILDLIKKGVAKVDHVQMIVLDEADKLLSQDFVQIMEDIILTLPKNRQILLYSATFPLSVQKFMNSHLQKPYEINLMEELTLKGVTQYYAYVTERQKVHCLNTLFSRLQINQSIIFCNSSQRVELLAKKISQLGYSCFYIHAKMRQEHRNRVFHDFRNGLCRNLVCTDLFTRGIDIQAVNVVINFDFPKLAETYLHRIGRSGRFGHLGLAINLITYDDRFNLKSIEEQLGTEIKPIPSNIDKSLYVAEYHSEPVEDEKP
notes: Recombinant GST-tagged human DDX6 (rDDX6), Abcam ab114574; it is not clear that this means full length; The printed 79 kDa with GST would fit the whole protein; also called rDDX6; source: bought: Abcam (ab114574)
